Patent publication US20250101096A1 (SERA PROGNOSTICS, published 2025)
Values belong to the binder of their own block, whether it stands above or below them.

What was measured:
[1] = target: T1, human insulin-like growth factor binding protein 4 (IBP4) (human, UniProt P22692 22-258); assay: SPR, format and IBP4 form not stated
T1 construct: also called IBP4 protein; IGFBP4
T1 sequence: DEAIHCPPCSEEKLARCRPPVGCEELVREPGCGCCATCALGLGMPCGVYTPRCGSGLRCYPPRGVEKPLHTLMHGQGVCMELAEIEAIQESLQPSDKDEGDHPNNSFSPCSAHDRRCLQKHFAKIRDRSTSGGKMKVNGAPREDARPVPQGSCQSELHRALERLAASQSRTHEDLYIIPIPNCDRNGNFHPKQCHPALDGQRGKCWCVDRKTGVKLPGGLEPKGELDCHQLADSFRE

[2] = target: T1, human insulin-like growth factor …; assay: AC-MS, mAb on M-PVA beads, QC2 serum, round 1
[3] = target: T1, human insulin-like growth factor …; assay: AC-MS, mAb on M-PVA beads, QC2 serum, round 3 (beads reused)
[4] = target: T1, human insulin-like growth factor …; assay: AC-MS, mAb on M-PVA beads, pooled pregnant serum
Source text: (§1) Anti-IBP4 antibody evaluation and selection. A total of 8 hybridoma clones (1H9.B6, 5C11.A7, 7G11.H4, 3D4.E9, 1G3.A3, 8G4.G11, 5F10.B2, and 3D8.A11) were produced according to the “additional production of anti-IBP4 antibodies” methods disclosed in Example 1 and screened by AC-MS, shown in Table 10 below. Monoclonal antibodies from these clones purified by protein-G affinity chromatography were covalently coupled to M-PVA magnetic beads and used in AC-MS experiments using pooled pregnant serum. The 5B3.G9 anti-IBP4 antibody clone was included in this analysis for comparison to the performance of the additional IBP4 antibodies, as shown and italicized in Table 10 below. Table 10 includes a summary of the additional antibodies Response Ratios and shared epitope binding results as determined by the competitive binding assays of Example 3.

[5] = target: T1, human insulin-like growth factor …; assay: AC-MS, mAb on M-PVA beads, QC2 serum, round 2 (beads reused)
[6] = target: T1, human insulin-like growth factor …; assay: AC-MS, mAb on M-PVA beads, pooled pregnant serum, peptide …
Source text: as §1

[7] = target: T2, human sex hormone-binding globulin (SHBG) (human, UniProt P04278 30-402, O-linked glycan at T36 (native glycosylated form)); assay: SPR (Biacore T100), mAb captured on anti-mouse IgG, SHBG antigen injected, 1:1 fit, assay 2
T2 construct: Purified human SHBG, the SHBG antigen of the SPR runs, or SHBG in human serum; also called SHBG protein
T2 sequence: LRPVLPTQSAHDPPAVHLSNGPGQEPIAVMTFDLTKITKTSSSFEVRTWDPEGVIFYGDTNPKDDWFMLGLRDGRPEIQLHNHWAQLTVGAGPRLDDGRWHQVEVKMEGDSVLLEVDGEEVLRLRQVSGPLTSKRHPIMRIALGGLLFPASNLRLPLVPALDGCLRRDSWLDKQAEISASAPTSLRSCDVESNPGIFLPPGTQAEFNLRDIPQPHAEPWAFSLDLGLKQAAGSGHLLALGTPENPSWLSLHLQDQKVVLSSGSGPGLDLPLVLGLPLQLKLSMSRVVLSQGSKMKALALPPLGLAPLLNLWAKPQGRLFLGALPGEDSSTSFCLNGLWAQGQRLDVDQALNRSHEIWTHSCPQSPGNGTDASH
Method: (§2) Surface plasmon resonance experiments were performed on a BiacoreT100 to characterize the anti-SHBG and anti-IBP4 antibodies. Anti-mouse-IgG antibody was amine coupled to ˜500 RU on a C1 sensor chip using standard NHS/EDC activation. Test monoclonal antibodies were captured on the anti-mouse-IgG surfaces. The binding for the Sex Hormone Binding Globulin Antigen to anti-SHBG variant antibodies 4G10.F8 and 13C9.E5 were measured in a multi-cycle kinetic mode. Binding studies were performed in PBS buffer+0.05% P20+3 mM EDTA at 25 degrees C. SHBG was captured for 1 minute at 200 nM and regenerated with 1/100 H3PO4 after each cycle. SHBG was captured to similar densities on 2 different flow cells followed by an injection of the SHBG antigen in a 3-fold titration series up to 600 nM over the two surfaces. The responses were processed by subtracting the buffer injection to correct for drift. The data sets fit well to a simple 1:1 interaction model using SCRUBBER (Biologic Software Pty Ltd). The antigen concentration series was tested three times over each surface, giving rise to the kinetic an affinity parameters summarized below.

[8] = target: T2, human sex hormone-binding globulin …; assay: SPR (Biacore T100), mAb captured on anti-mouse IgG, SHBG antigen injected, average of 3 assays
Method: as §2

[9] = target: T2, human sex hormone-binding globulin …; assay: SPR (Biacore T100), mAb captured on anti-mouse IgG, SHBG antigen injected, 1:1 fit, assay 1
Method: as §2

[10] = target: T2, human sex hormone-binding globulin …; assay: SPR (Biacore T100), mAb captured on anti-mouse IgG, SHBG antigen injected, 1:1 fit, assay 3
Method: as §2

[11] = target: T3, anti-IBP4 antibody clone variant 7D6.G4; assay: ECLIA, peptide competes with IBP4 for the antibody
T3 construct: Mouse monoclonal; variant form; also called IBP4 (7D6.G4) V2; IBP4-7D6.G4

[12] = target: T4, anti-IBP4 antibody clone variant 5B3.G9; assay: ECLIA, peptide competes with IBP4 for the antibody
T4 construct: Mouse monoclonal; variant form expressed in CHO cells; also called IBP4 (5B3.G9) V1; IBP4-5B3.G9
T4 sequence (heavy, as listed by the source, chain 1 of 2): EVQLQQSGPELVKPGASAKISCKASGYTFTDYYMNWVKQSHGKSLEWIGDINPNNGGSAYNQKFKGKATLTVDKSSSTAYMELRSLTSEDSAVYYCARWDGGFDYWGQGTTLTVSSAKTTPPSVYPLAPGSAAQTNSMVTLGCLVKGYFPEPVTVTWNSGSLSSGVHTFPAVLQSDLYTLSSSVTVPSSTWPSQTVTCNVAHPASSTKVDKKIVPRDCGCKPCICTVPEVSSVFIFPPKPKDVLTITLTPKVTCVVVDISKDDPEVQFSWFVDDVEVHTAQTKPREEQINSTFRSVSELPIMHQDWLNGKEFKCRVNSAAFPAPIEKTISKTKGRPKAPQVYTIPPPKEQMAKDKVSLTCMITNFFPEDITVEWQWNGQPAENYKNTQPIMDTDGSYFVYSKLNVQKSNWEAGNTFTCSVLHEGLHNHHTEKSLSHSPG
T4 sequence (light, as listed by the source, chain 2 of 2): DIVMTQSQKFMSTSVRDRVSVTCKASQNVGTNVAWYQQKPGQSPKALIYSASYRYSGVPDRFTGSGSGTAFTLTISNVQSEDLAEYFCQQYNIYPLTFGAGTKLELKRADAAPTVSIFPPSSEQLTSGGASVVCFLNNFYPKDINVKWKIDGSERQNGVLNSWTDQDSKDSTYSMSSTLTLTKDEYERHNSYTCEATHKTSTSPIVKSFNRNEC

T3 sequence (VH, as listed by the source, chain 1 of 2): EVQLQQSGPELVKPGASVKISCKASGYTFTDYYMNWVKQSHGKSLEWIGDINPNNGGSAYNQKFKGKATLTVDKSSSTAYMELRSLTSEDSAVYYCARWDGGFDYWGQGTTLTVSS
T3 sequence (VL, as listed by the source, chain 2 of 2): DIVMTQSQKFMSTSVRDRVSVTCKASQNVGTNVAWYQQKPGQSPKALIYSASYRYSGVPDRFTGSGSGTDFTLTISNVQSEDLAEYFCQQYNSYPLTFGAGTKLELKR

Kd [7]: 0.765 nM | koff [7]: 7.94e-05 s⁻¹ | kon [7]: 104000 M⁻¹ s⁻¹ | Kd [8]: 0.8 nM | koff [8]: 8e-05 s⁻¹ | kon [8]: 103000 M⁻¹ s⁻¹ | Kd [9]: 0.415 nM | koff [9]: 4.54e-05 s⁻¹ | kon [9]: 109000 M⁻¹ s⁻¹ | Kd [10]: 1.27 nM | koff [10]: 0.000119 s⁻¹ | kon [10]: 94100 M⁻¹ s⁻¹
B3: anti-SHBG antibody clone variant 13C9.E5 (antibody, mouse IgG1, kappa, V domains shown)
VH: QIQLQQPGAELVKPGASVKMSCKASGYTFTGYWMHWVKQRPGQGLEWIGVIDPSDTYTNYNQKFRGKATLTVDTSSSTAYMQLSGLTSEDSAVYYCTRDPLVTADFDYWGQGTTLTVSS
VL: DIVMTQSQKFMSTSVGDRVSVTCKASQNVDTNVAWYRQKPGQSPKALIYSASYRFSGVPDRFTGSGSGTDFTLTISNFQSEDLAEYFCQQYDSYPYTFGGGTKLEIKR
notes: Mouse monoclonal; variant form; also called SHBG (13C9.E5) Anti SHBG v2; SHBG #16

binding result [11]: binds | binding result [12]: binds
Binder: LDGQRGKCWCVDRKT [G10]

binding result [11]: binds | binding result [12]: binds
Binder: CHPALDGQRGKCWCV [G8]

binding result [11]: binds | binding result [12]: binds
Binder: PALDGQRGKCWCVDR [G9]

The next lines start with the binder.

B1: anti-IBP4 antibody 1G3.A3 (antibody, mouse IgG1)
heavy: QVQLQQSGAELVRPGASVTLSCKASGYTFTDYEMHWVKQTPVHGLEWIGAIDPETGGIAYNQKFRGKAILTADKSSSTAYMELRSLTSEDSAVYYCARNYGISSYYAVDYWGQGTSVTVSSAKTTPPSVYPLAPGSAAQTNSMVTLGCLVKGYFPEPVTVTWNSGSLSSGVHTFPAVLQSDLYTLSSSVTVPSSTWPSQTVTCNVAHPASSTKVDKKIVPRDCGCKPCICTVPEVSSVFIFPPKPKDVLTITLTPKVTCVVVDISKDDPEVQFSWFVDDVEVHTAQTKPREEQINSTFRSVSELPIMHQDWLNGKEFKCRVNSAAFPAPIEKTISKTKGRPKAPQVYTIPPPKEQMAKDKVSLTCMITNFFPEDITVEWQWNGQPAENYKNTQPIMDTDGSYFVYSKLNVQKSNWEAGNTFTCSVLHEGLHNHHTEKSLSHSPGK
light: DIVMTQSQKFMSTTVGERVSITCKASQNVGTAVAWYQQKPGQSPKLLIYSASNRYTGVPDRFTGSGSGTDFTLTISNMQSEDLADYVSQQYSSYPLTFGAGTKLELK
notes: Mouse hybridoma mAb raised against FL IBP4; also called IBP4-1G3.A3
Kd [1]: 22 nM | koff [1]: 0.0033 s⁻¹ | kon [1]: 160000 M⁻¹ s⁻¹ | t1/2 [1]: 210 s | ave RR [2]: 0.281 | ave RR [3]: 0.289 | ave IBP4 AC-MS RR [4]: 0.272 | ave RR [5]: 0.291 | Response Ratio [6]: 0.272

B2: anti-IBP4 antibody 3D4.E9 (antibody, mouse IgG2b, kappa, V domains shown)
VH: QVQLQQSGAELVRPGASVTLSCKASGYTFTDYEMHWVKQTPVHGLEWIGAIDPETGGAAYNQKFKGKAILTADKSSSTAYMELRSLTSEDSAVYYCTRARGSSSVYYFDYWGQGTTLTVSS
VL: DIVMTQSQKFMSTSVGDRVSVTCKASQNVGTNVAWYQQKPGQSPKALIYSTSYRYSGVPDRFTGSRSGTDFILTISNVQSEDLAEYFCQQYDSYPLTFGSGTKLEIKR
notes: Mouse hybridoma mAb raised against FL IBP4; also called IBP4-3D4.E9
Kd [1]: 8 nM | koff [1]: 0.00221 s⁻¹ | kon [1]: 270000 M⁻¹ s⁻¹ | t1/2 [1]: 314 s | ave RR [2]: 0.491 | ave RR [3]: 0.454 | ave IBP4 AC-MS RR [4]: 0.439 | ave RR [5]: 0.468 | Response Ratio [6]: 0.439

Binder: VDRKTGVKLPGGLEP [H3]
binding result [11]: no binding (tested: about 7 ul of peptide) | binding result [12]: no binding (tested: about 7 ul of peptide)

Binder: HPKQCHPALDGQRGK [G6]
binding result [11]: no binding (tested: about 7 ul of peptide) | binding result [12]: no binding (tested: about 7 ul of peptide)
